Where “and” joins values, the source holds several entries; their conditions need not be identical. Identical values can stand only once. Like-named read-outs stand apart in the source and are kept apart here.
Legend:
[1] = target: GST fused to the C-terminal residues 200-294 of HMPV P (strain CAN97-83) (human metapneumovirus strain CAN97-83)
[2] = target: HMPV nucleoprotein N (strain NL/00/1), assembled and RNA-bound (N-RNA) (human metapneumovirus strain NL/00/1) (UniProt Q6WBA1); experiment: cryo-EM structure; single-particle cryo-EM of recombinant N-RNA (1.0 mg/ml) in 25 mM Tris-HCl pH 8.0, 250 mM NaCl; 2D classification and 3D reconstruction of 10-mer, 11-mer and spiral particles, local refinement of an N-RNA dimer
[3] = target: HMPV nucleoprotein N (strain NL/00/1), assembled and RNA-bound (N-RNA) (human metapneumovirus strain NL/00/1) (UniProt Q6WBA1); experiment: as above; remark: listed apart in the source

Substance | HMPV polymerase activity, minigenome assay (Firefly luciferase) in BSRT7/5 cells, compared to wild-type; N and full-length P of strain NL99-1 from pCite plasmids (% of wild-type) [1] | stoichiometry N [2] | stoichiometry N [3]
HMPV N (strain NL99-1, plasmid pN) triple mutant with alanines in positions 100, 103 and 111 (natural protein) | 30 | – | –
HMPV N (strain NL99-1, plasmid pN) L111A (natural protein) | < 50 | – | –
HMPV nucleoprotein N (strain NL/00/1), assembled and RNA-bound (N-RNA) (from UniProt Q6WBA1 1-394) (natural protein) | – | 10 protomers and 11 protomers and 12 protomers | > 12 protomers
HMPV N (strain CAN97-83) with a C-terminal 6xHis tag, L111E (natural protein) | 10 | – | –
